Test results from publication PMC6435701.

What was measured:
[1] = biological target: ATAD3A K135E (Flag-tagged); experiment: non-reducing western blot of ATAD3A dimer (with or without β-ME), densitometry; details: HEK293 cells transfected for 48 h; at least 6 independent experiments; parent: est. 1.0; read off a plot
Myc-tagged ATAD3A = experiment: co-immunoprecipitation (IP anti-Flag, WB anti-Myc), densitometry; details: HEK293 cells transfected for 48 h; five independent experiments; parent: est. 1.0; read off a plot
[2] = biological target: ATAD3A K135Q (Flag-tagged); experiment: non-reducing western blot of ATAD3A dimer (with or without β-ME), densitometry; details: HEK293 cells transfected for 48 h; at least 6 independent experiments; parent: est. 1.0; read off a plot

“ATAD3A-Flag wildtype (in HEK293 cells) K135E” gave a ratio to parent [1] of 2.3 and a ratio to parent (Myc-tagged ATAD3A) of 1.6.
“ATAD3A-Flag wildtype (in HEK293 cells) K135Q” gave a ratio to parent [2] of 0.8 and a ratio to parent (Myc-tagged ATAD3A) of 0.58.
